The values that follow come from US7579180B2, “Beta secretase polypeptides” (Amgen Inc., priority 1999, dated 2009).

The target in the assay is T1, human beta-secretase-Fc fusion (Homo sapiens, UniProt P56817).
T1 construct: A plasmid containing cDNA encoding amino acids 1-460 of beta-secretase fused to the Fc portion of human IgG; made in house; host or cells: human embryonic kidney 293T cells, stably transfected; purified from conditioned medium on protein A
The assay is described as follows: Beta-secretase activity assay: cleavage of DNP-labeled APP peptides, HPLC. The format is biochemical. The following applies: Sw, Wt and MV peptides; FIG. 11. As to the method:
FIG. 11 is a graph depicting the ability of human beta-secretase-Fc fusion to cleave various APP peptides. The X-axis is the amount of enzyme in the reaction mixture and the Y-axis is the amount of cleavage (denoted as pmol product formed) of each of three substrate peptides. “Sw” refers to the APP peptide with the Swedish mutation; “Wt” refers to wild type APP peptide; and “MV” refers to a mutated APP peptide.
Recombinant native as well as mutant beta secretase polypeptides were assayed for activity by measuring the ability of the molecule to cleave various A-beta peptides.
Each assay was conducted as follows. […] Quenched reactions were analyzed by HPLC on a 5 μm, C18 reversed-phase column (Sephasil Peptide, 4.6×100 mm; Amersham Pharmacia Biotech, Piscataway, N.J.) using first a linear gradient of 18-31.5 percent acetonitrile in 0.1 percent TFA over 40 minutes, then 31.5-81 percent acetonitrile for 1 minute, then 81 percent acetonitrile for 4 minutes, and then returning to 18-percent acetonitrile for several minutes to reequilibrate the column. […] Proteolysis of the Sw and WT octapeptides was evaluated using a linear gradient of 27-37.8 percent acetonitrile over 24 minutes on the same column.
Both product and substrate were monitored by absorbance at 360 nm. […]
The concentration of standard was determined from the extinction coefficient of DNP (e365nm=16 mM^−1cm^−1). […]

T1 sequence (P56817 with tags, fused parts or gaps limits assumed): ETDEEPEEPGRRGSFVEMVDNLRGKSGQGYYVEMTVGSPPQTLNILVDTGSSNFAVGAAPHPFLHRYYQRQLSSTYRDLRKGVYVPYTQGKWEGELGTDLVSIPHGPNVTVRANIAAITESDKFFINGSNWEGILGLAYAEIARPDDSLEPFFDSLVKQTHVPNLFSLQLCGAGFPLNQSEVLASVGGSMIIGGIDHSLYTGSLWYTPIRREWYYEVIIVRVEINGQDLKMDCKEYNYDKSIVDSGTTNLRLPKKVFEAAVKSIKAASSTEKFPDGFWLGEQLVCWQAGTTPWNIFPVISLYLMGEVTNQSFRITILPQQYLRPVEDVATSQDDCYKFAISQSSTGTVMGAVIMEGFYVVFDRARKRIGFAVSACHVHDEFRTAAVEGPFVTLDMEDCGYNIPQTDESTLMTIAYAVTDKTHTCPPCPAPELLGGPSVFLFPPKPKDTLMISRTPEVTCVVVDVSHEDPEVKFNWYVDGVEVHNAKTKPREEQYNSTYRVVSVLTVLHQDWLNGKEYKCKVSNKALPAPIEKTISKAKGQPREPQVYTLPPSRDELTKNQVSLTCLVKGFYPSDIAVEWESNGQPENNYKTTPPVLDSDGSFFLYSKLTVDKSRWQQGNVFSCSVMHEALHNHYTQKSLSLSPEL

B1: beta-secretase-Fc: amino acids 1-460 of human beta-secretase fused to the Fc portion of human IgG1, alanine-valine-threonine at the junction (protein)
chain: TQHGIRLPLRSGLGGAPLGLRLPRETDEEPEEPGRRGSFVEMVDNLRGKSGQGYYVEMTVGSPPQTLNILVDTGSSNFAVGAAPHPFLHRYYQRQLSSTYRDLRKGVYVPYTQGKWEGELGTDLVSIPHGPNVTVRANIAAITESDKFFINGSNWEGILGLAYAEIARPDDSLEPFFDSLVKQTHVPNLFSLQLCGAGFPLNQSEVLASVGGSMIIGGIDHSLYTGSLWYTPIRREWYYEVIIVRVEINGQDLKMDCKEYNYDKSIVDSGTTNLRLPKKVFEAAVKSIKAASSTEKFPDGFWLGEQLVCWQAGTTPWNIFPVISLYLMGEVTNQSFRITILPQQYLRPVEDVATSQDDCYKFAISQSSTGTVMGAVIMEGFYVVFDRARKRIGFAVSACHVHDEFRTAAVEGPFVTLDMEDCGYNIPQTDESTLMTIAYAVT
modifications: left off: a dimerising Fc or GST
notes: amino acids 1-460 of human beta-secretase fused to the Fc portion of human IgG1, alanine-valine-threonine at the junction
On to B1, for which the “substrate specificity of the enzyme” value is “has the same substrate specificity that has previously been described for beta-secretase from intact cells”.
